Laboratory results taken from article PMC9860126, “Mechanistic insights into the nickel-dependent allosteric response of the Helicobacter pylori NikR transcription factor”.

T1: HpNikR WT (Helicobacter pylori G27 (from vector …, UniProt A1YSQ9 1-148))
T1 sequence: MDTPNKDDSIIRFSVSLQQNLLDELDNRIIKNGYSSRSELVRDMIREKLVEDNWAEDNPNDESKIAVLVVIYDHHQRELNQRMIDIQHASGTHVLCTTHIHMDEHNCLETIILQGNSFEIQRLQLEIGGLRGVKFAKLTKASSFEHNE

B1: ureA promoter 32 bp (FA) (dsDNA)
DNA 1: ATATAACACTAATTCATTTTAAATAATAATTA
DNA 2: TAATTATTATTTAAAATGAATTAGTGTTATAT
B2: ureA-perf promoter 32 bp (dsDNA)
DNA 1: ATATATTATTAATTCATTTTAAATAATAATTA
DNA 2: TAATTATTATTTAAAATGAATTAATAATATAT

Key:
HpNikR K134A = HpNikR K134A (Helicobacter pylori G27, UniProt A1YSQ9 1-148, K134A); experiment: fluorescence anisotropy; apo (no Ni); FA: 5 nM DNA, 20 mM Tris pH 7.6, 100 mM NaCl, 3 mM MgSO4, temperature not stated (Ni loading 1.2 eq NiSO4 per monomer at RT). EMSA: 20 mM Tris pH 7.5, 100 mM KCl, 3 mM MgCl2, 0.1% IGEPAL, 5% glycerol, 0.1 mg/ml herring sperm DNA, RT; gel with 800 uM NiSO4 at 4 C; settings: protein: recombinant; tags: none stated; chain copies: 4; label: fluorescein on internal thymine (T14 of strand 1); blunt
HpNikR WT [1] = biological target: T1, HpNikR WT; experiment: as above; settings: protein: recombinant; tags: none stated (untagged purification); chain copies: 4; label: fluorescein on internal thymine (T14 of strand 1); blunt
HpNikR K31A [2] = biological target: T2, HpNikR K31A (Helicobacter pylori G27, UniProt A1YSQ9 1-148, K31A); experiment: as above; settings: protein: recombinant; tags: none stated; chain copies: 4; label: fluorescein on internal thymine (T14 of strand 1); blunt
HpNikR N32A = HpNikR N32A (Helicobacter pylori G27, UniProt A1YSQ9 1-148, N32A); experiment: fluorescence anisotropy; Ni(II)-bound; FA: 5 nM DNA, 20 mM Tris pH 7.6, 100 mM NaCl, 3 mM MgSO4, temperature not stated (Ni loading 1.2 eq NiSO4 per monomer at RT). EMSA: 20 mM Tris pH 7.5, 100 mM KCl, 3 mM MgCl2, 0.1% IGEPAL, 5% glycerol, 0.1 mg/ml herring sperm DNA, RT; gel with 800 uM NiSO4 at 4 C; settings: protein: recombinant; tags: none stated; chain copies: 4; label: fluorescein on internal thymine (T14 of strand 1); blunt
HpNikR Q81A = HpNikR Q81A (Helicobacter pylori G27, UniProt A1YSQ9 1-148, Q81A); experiment: as above; settings: protein: recombinant; tags: none stated; chain copies: 4; label: fluorescein on internal thymine (T14 of strand 1); blunt
HpNikR E56A = HpNikR E56A (Helicobacter pylori G27, UniProt A1YSQ9 1-148, E56A); experiment: as above; settings: protein: recombinant; tags: none stated; chain copies: 4; label: fluorescein on internal thymine (T14 of strand 1); blunt
HpNikR T92A = HpNikR T92A (Helicobacter pylori G27, UniProt A1YSQ9 1-148, T92A); experiment: as above; settings: protein: recombinant; tags: none stated; chain copies: 4; label: fluorescein on internal thymine (T14 of strand 1); blunt
HpNikR E62A = HpNikR E62A (Helicobacter pylori G27, UniProt A1YSQ9 1-148, E62A); experiment: as above; settings: protein: recombinant; tags: none stated; chain copies: 4; label: fluorescein on internal thymine (T14 of strand 1); blunt
HpNikR WT [3] = biological target: T1, HpNikR WT; experiment: as above; settings: protein: recombinant; tags: none stated (untagged purification); chain copies: 4; label: fluorescein on internal thymine (T14 of strand 1); blunt
HpNikR K31A [4] = biological target: T2, HpNikR K31A; experiment: as above; settings: protein: recombinant; tags: none stated; chain copies: 4; label: fluorescein on internal thymine (T14 of strand 1); blunt

Row | Binder | Kd (HpNikR K134A) | Kd (HpNikR WT [1]) | Kd (HpNikR K31A [2]) | Kd (HpNikR N32A) | Kd (HpNikR Q81A) | Kd (HpNikR E56A) | Kd (HpNikR T92A) | Kd (HpNikR E62A) | Kd (HpNikR WT [3]) | Kd (HpNikR K31A [4])
1 | B1 | 1700 ± 700 nM | 4900 ± 1700 nM | 2300 ± 500 nM | 4.8 ± 0.9 nM | 6.5 ± 1 nM | 5.4 ± 0.1 nM | 3.6 ± 0.2 nM | 10.1 ± 1.1 nM | 4.5 ± 0.6 nM | 6.8 ± 1 nM
2 | B2 | 1000 ± 300 nM | 4100 ± 1100 nM | 1300 ± 200 nM | 1.3 ± 0.4 nM | 3.9 ± 1.4 nM | 5.9 ± 0.8 nM | 2.6 ± 0.5 nM | 2.9 ± 0.9 nM | 4.7 ± 0.4 nM | 4.1 ± 1 nM
